target: MT2 protein (from Sigma) (UniProt P02795); assay: SPR (BIAcoreX), MT2 immobilised on CM5 chip, peptide injected

| Kd [µM] | koff [s⁻¹] | kon [M⁻¹ s⁻¹] | Binder |
| --- | --- | --- | --- |
| 0.367 | 0.00574 | 15700 | KKSSCSCSPVGSAK [MTAn peptide] |
| 0.0895 | 0.0004 | 4540 | AQGSICKGASDKSS [MTAcc peptide] |
| 0.16 | 0.000501 | 2830 | SAGSCKCKESKSTS [MTBcc peptide] |
